Molecular target: HIV-1 Env of the 208-virus panel (Env-pseudoviruses)
Assay: cell-based or functional assay

Binder	neutralization of Env-pseudoviruses on TZM-bl cells, share of the panel at IC80 less than 1 µg/ml (% of the 208-virus panel)	neutralization of Env-pseudoviruses on TZM-bl cells, share of the panel at IC80 <1 µg/ml (% of 208 viruses)	neutralization of Env-pseudoviruses on TZM-bl cells, share of the panel at IC80<1 µg/ml (% of viruses (208-virus panel))
VRC07-523LS.v14 (antibody, V domains shown) VH: QVRLSQSGGQMKKPGDSMRISCDASGYEFINCPINWIRLAPGKRPEWMGWMKPRFGAVSYARQLQGRVTMTRQLSQDPDDPDWGTAFLELRSLTSDDTAVYFCTRGKYCTARDYYNWDFEHWGQGTPVTVSS VL: LTQSPGTLSLSPGETAIISCDTSQYGSLAWYQQRPGQAPRLVIYSGSTRAAGIPDRFSGSRWGPDYNLTISNLESGDFGVYYCQQYEFFGQGTKVQVDI	92	–	–
VRC07-523LS.v32 (antibody, V domains shown) VH: QVRLSQSGGQMKKPGDSMRISCSASGYEFINCPINWIRLAPGKRPEWMGWMKPRFGAVSYARQLQGRVTMTRQLSQDPDDPDWGTAFLELRSLTSDDTAVYFCTRGSYCTARDYYNWDFEHWGQGTPVTVSS VL: LTQSPGTLSLSPGETAIISCSTSQYGSLAWYQQRPGQAPRLVIYSGSTRAAGIPDRFSGSRWGPDYNLTISNLESGDFGVYYCQQYEFFGQGTKVQVDI	92	–	–
N6LS.C1 (antibody, V domains shown) VH: RAHLVQSGTAMKKPGASVRVSCQTSGYTFTAHILFWFRQAPGRGLEWVGWIKPQYGAVNFGGGFRDRVTLTRQLSQDPDDPDWGIAYMDIDGLKPDDTAVYYCARDRSYGDSSWALDAWGQGTTVVVSA VL: YIHVTQSPSSLSVSIGDDVTINCQTSQGVGSDLHWYQHKPGRAPKLLIHHTSSVEDGVPSRFSGSGFHTSFNLTISDLQADDIATYYCQVLQFFGRGSRLHIKR	–	> 73	73
N6LS.C30 (antibody, V domains shown) VH: RAHLVQSGTAMKEPGASVRVSCQTSGYTFTAHILFWFRQAPGRGLEWVGWIKPQYGAVNFGGGFRDRVTLTRQLSQDPDDPDWGIAYMDIRGLKPDDTAVYYCARDRSYGDSSWALDAWGQGTTVVVSA VL: YIHVTQSPSSLSVSIGDEVTINCQTSQGVGSDLHWYQHKPGRAPKLLIHHTSSVEDGVPSRFSGSGFHTSFNLTISDLQADDIATYYCQVLQFFGRGSRLHIKR	–	> 73	77

From patent publication US20250197483A1
